Assay [1] addresses histone H3 1–15 K9me2 peptide (UniProt P68431). In words: fluorescence polarisation; fluorescence-labelled peptide constant at 40 nM, SUV39H1 (42–100 or 44–106) titrated from low to high micromolar; 20 mM Tris-HCl pH 8.5 or 7.5, 150 mM NaCl, 1 mM DTT, 0.01% Tween-X-100; 10 µL in 384-well plates; fit to a hyperbolic function. On the technique in general: Fluorescence polarisation rises when a labelled molecule tumbles more slowly, as on binding a larger partner.

For assay [2], the target named is histone H3 1–15 K9me3 peptide (UniProt P68431). Described as above.

Broadly, the Kd is a measure of binding affinity in units of concentration. Low readings indicate a tighter complex, high ones a looser complex. Consider “human SUV39H1 chromodomain (aa 42–100), complete chromodomain (from UniProt O43463 42-100) (domain or fragment)”, for which the Kd in assay [1] was found to be 29 µM; in assay [2], 20 µM.

The values are drawn from paper PMC3532415.
